Measurements from article PMC10986502.

Test system: His6-Fur (Riemerella anatipestifer CH-1)
Experiment: EMSA
Settings: 5 mM Mn2+ (surrogate for Fe2+); EMSA: 2.5% glycerol, 0.05% NP-40, 5 mM MgCl2, 1 uM ZnSO4, 5 mM MnCl2; 1 ug DNA, 2-8 ug Fur in 20 uL; room temperature 20 min; pH and salt not given; 6% native …

## rhuB promoter (194 bp)
  Kd: 4.3 nM
